According to patent publication US20140274874A1 (Amgen, published 2014):
Numbering of substitutions follows the chain as printed. In names and notes the source's numbering stands.

T1: MMP2 (human pro-MMP2 activated with APMA) (human, UniProt P08253 30-660)
T1 sequence (looked up): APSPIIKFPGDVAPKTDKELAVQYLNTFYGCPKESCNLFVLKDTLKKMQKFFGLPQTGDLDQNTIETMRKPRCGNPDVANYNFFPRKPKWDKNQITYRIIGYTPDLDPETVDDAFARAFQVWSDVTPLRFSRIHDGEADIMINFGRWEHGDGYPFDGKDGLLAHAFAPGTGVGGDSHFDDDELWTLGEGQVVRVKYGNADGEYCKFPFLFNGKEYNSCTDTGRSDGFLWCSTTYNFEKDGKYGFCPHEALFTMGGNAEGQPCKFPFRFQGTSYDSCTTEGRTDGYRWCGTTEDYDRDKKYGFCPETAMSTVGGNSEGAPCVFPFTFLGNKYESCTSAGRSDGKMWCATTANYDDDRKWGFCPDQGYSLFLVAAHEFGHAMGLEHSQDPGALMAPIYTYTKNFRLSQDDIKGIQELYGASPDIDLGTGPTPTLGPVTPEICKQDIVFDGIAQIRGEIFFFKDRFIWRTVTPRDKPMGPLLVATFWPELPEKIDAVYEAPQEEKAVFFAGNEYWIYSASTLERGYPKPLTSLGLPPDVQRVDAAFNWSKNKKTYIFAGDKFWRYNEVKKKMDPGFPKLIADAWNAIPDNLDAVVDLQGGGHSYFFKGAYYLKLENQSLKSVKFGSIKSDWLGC

B1: wild-type TIMP-3 (native human tissue inhibitor of metalloproteinase 3) (other)
chain: CTCSPSHPQDAFCNSDIVIRAKVVGKKLVKEGPFGTLVYTIKQMKMYRGFTKMPHVQYIHTEASESLCGLKLEVNKYQYLLTGRVYDGKMYTGLCNFVERWDQLTLSQRKGLNYRYHLGCNCKIKSCYYLPCFVTSKNECLWTDMLSNFGYPGYQSKHYACIRQKGGYCSWYRGWAPPDKSIINATDP
B2: TIMP-3 mutein T63N, K65T (other)
chain: B1 chain with T40N, K42T
B3: TIMP-3 mutein K45S, F57N (other)
chain: B1 chain with K22S, F34N
B4: TIMP-3 mutein F57N (other)
chain: B1 chain with F34N
B5: TIMP-3 mutein P56N, G58T (other)
chain: B1 chain with P33N, G35T

biological target: catalytic domain of human MMP9 (human, UniProt P14780 107-444, limits assumed); test: cell-based or functional assay
Sequence (P14780 107-444 limits assumed): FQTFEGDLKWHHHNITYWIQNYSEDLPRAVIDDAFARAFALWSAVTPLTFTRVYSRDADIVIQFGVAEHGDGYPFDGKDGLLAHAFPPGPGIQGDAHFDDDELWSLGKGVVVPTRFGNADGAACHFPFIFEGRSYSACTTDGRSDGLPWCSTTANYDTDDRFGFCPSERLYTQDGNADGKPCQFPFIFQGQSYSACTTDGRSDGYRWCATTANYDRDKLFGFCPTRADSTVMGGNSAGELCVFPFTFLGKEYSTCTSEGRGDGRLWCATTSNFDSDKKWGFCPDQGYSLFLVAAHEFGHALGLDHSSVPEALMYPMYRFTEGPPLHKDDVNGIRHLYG

In order of rising “MMP9 IC50” value:
1. B2  0.5 nM
2. B1  1 nM
3. B5  2.3 nM
4. B3  4 nM
5. B4  4.6 nM

biological target: MMP13 (active MMP13, or pro-MMP-13 activated with APMA) (UniProt P45452 20-471, limits assumed); test: cell-based or functional assay

In order of falling “MMP13 IC50” value:
1. B5  3.1 nM
2. B2  2.2 nM
3. B1  0.9 nM
4. B4  0.5 nM

biological target: T1, MMP2 (human pro-MMP2 activated with …); test: cell-based or functional assay

In order of rising “MMP2 IC50” value:
1. B3  0.3 nM
2. B4  0.5 nM
3. B1  0.6 nM
4. B2  0.8 nM
5. B5  1 nM
